Source: the DeepSol protein solubility set

test: soluble on expression in E. coli; label from the status in PepcDB or PDB records

| Sequence | soluble on expression in E. coli |
| --- | --- |
| MRQPEDGNIRLWRYMDFSKFVALISSKSLFLNRVDRFTDPYEGHFSSLNNRLRNSIYEAKYAGSEIDPHKVASAIFDFNSFSRQWTYVNCWHANKYESAAMWDLYAKTEEAIAIETDYNSLAAVLPSEAQLGFVEYIDFDTEWMPENNATYPYLHKRKSFEHEKEVRIIVQEIPRAKSGVGFDREAVNDKHGISLDIDLNQLIKSIHVSPTAPKWLVDLTDTVSKTFGIDAHVKQSDLYKAPIK | soluble |
| MGSDKIHHHHHHMEKDKKIPAKIYPFYPNGQFYFERGVEAFRDQRIKEAIRYLVRASELEPGEAVILCQLAICYTEIGQFHKSNQLLREVLEQRNGNMEYCYYFIANNFAYMKDYRRALQYANRYLDSSTDGEYTEEAKDLIEVLLEETPFGETIENGFSKLEQEFYSYKKEINRYLAEEDSASACDILRKVIDEKPNFWPAYNQLASLYFEQLKEEEGVRVLSDLLSRNPGNLLGICDLFIYHFYKGNRKEADELYLELRDVLPVLAHHKEKLGLIHAMMGEYEEADDLLEQVADLEVTERSKYYYFRAKSSYYLGDVEGAKMFWHSFLECDLYEDVRFPWEQEPDLTNDTRLVLEMLQEEDDLTHMLGVYALTISGNRPELVLFHPLLDMSDWSYMEHLMFTNFDYFPDGAIEQNGYLIAKAMIILKENGILLNEEYMALYKQMFSLVLIDAGKDLILGRYTIETVASAIAKLFLPHLKLQLVEEFECSKCARDIERVLSR | not soluble |
| MGSSHHHHHHSSGLVPRGSHMKKRQLGTSDLHVSELGFGCMSLGTDETKARRIMDEVLELGINYLDTADLYNQGLNEQFVGKALKGRRQDIILATKVGNRFEQGKEGWWWDPSKAYIKEAVKDSLRRLQTDYIDLYQLHGGTIDDPIDETIEAFEELKQEGVIRYYGISSIRPNVIKEYLKRSNIVSIMMQYSILDRRPEEWFPLIQEHGVSVVVRGPVARGLLSRRPLPEGEGYLNYRYDELKLLRESLPTDRPLHELALQYCLAHDVVATVAAGASSIDQVKANVQAVEATPLTAEERQHIQKLAKAAVYEQHRE | soluble |
| MSLENFRSNVRKPTMSLQIAVEKVRWLAAGLLELNGCDADIAQDVAEHMIEAERYGFASHGVTLLPKYLENIARGDVTANARPECLTSEGNLQRFHAHNGFGQHAGKVAVNAAIEQAKRRGFCLLTLCHAHHLGRMGHYGQMVADQGLAMLAMSNVTGRPALVAPWGGAEPRMTTNPFCFAWPFSDGRPPILVDFATSSMALNKARVMSSTGKQAAPGQLIDAQGNPSNDPGVLFSNPPGALLPFGEHKGFGLALMIEMMAGILSGGDTIAEDHQTDGSAHNHLFALIIDPDQFTDLAGEKGQFFADYLLATQPQPGGNPVIYPGMPEAANRERNAKMITIPVSFWSWVVEHYARKGIDLGLHPQESALAEGHHHHHH | soluble |
| MREGWRDEPAARGGCQCGRVRYSVPAGPKKSTVCHCRMCQRATGNAFAPLLEVPTADVVWEGTPAVWASSSVAERGFCATCGTPLFYRSDETTELMAGTLAGFDFRPIANHGIEGRVGWLGGLAALPDRATRPELLSRVVSHQAPDE | not soluble |
| MSSQTILSVNNLSVSFTTNDGIVDAVKNVSFELQAGETLSIVGESGSGKSVSTNALMTLLPDNAIVHPDSSIMFEGESILDKTERQMQRIRGDRIGMIFQEPMTSLNPYMRVGIQVAEAMMCHRSVNQRKAKERVLELFDLVHLPNPQQAYDKYPHEFSGGQLQRIMIAMALINEPDILIADEPTTALDVTVQAEVLLLIKEIQAKMGMAILFITHDLGVVKHFADRVLVMCKGEVVEEGITEHLFSEPQHEYTKMLINSIPKGSKTPVDEKASELLNAEDIR | not soluble |
| MEALIAYSGRRFARPHYYANAHERDEVDIVPVQMAMHDARAAGTGIDREGFQIVKHTSAVTDFADREQVARIHMREIEELVRAETGADMVHVGAPGLLRFSEKSGRAGSLNNSMPARFAHIDISDRTAQAFGERGANGRPFVRCAAYNVWRAISPPPQDVPLAFCDARSLAPGDLIEADAVFDEPGKPEWSFEGLVVAHNPAHRWYFFPDMRIDEAVLFKTNDSDPARAHHVPHVAFDLPDCPADAPPRVSIEMRATAYWWALEHHHHHH | soluble |
| MSGHFNYIVVGRGMMGAAAARHLAETVDGVALIGPGEPADIKSHQGVFASHYDEARITRTIDGDPDWALLANRSIARYADIAARSGVEFYAPVGCLMVGPERGGANPFVDDVLRAAARLGVSTELLGDQSLKSRFPYFSFEPGCEGVFERDNAGYVNPRALVKAQAILAEKAGVTLIDDIVVSTREEDGRASVQTASGAVYTAERVLVAAGGFSITRDLLPQPVGLDVYARTVAFFEIDEGDLGQYAGMPSLIYEPHDTTKHIYLLPPVRYPDGKFYLKIGGDPDDKRVGSDPEIREWFRSGGRESVRDHLSEIVGTLVPSVDHSRVSMAACVVSKTKSGYPAIGFTASPRIAVLTGGNGTAAKSSDEIGRLGAALLRDGKIADDAFSTDFKPEFL | not soluble |
| MAHHHHHHMTDTTKGALKRSNTLFLSDAEQFVFDFGGSAGGRAVSPGSSHGSGGQPGEGDGEKGIEETDLANGRTGVVTPFSERERTAPVAPLDAEEVQRYFDKALKGGRRILLENVPLDEAIEKFQLGLRRYEEWLCNQANSRNRGDSSKSRGDPLNEGYRGKPGDVARDAKDRKRPRL | not soluble |
| AQQGVFTLPARINFGVTVLVNSAATQHVEIFVDNEPRAAFSGVGTGDNNLGTKVINSGSGNVRVQITANGRQSDLVSSQLVLANKLNLAVVGSEDGTDMDYNDSIVILNWPLG | soluble |
| MEFRQLRSFVEVVRQGSFTQAAQVRHASQSTISKQVAQLEQSLGVQVLERNGPHVRLTDAGAVVFRRAEEMLRLRRDLLSELDDLSQLNRGELRLGLPLLGADALFAQRFAEYRRRYPNIAVHLVEGGSKTMEQAVLAGELELAGSLTPADDGFDYQPFCNEPLDVLLPAGHPKAAAASVALGELADSPFLLYQQSFTLNDRLLRACLEAGFSPREGGRSGQADFLGALVAANQGVVLLPRVIAREIERPGVVRVLLREPDLRWDIAFIWRRGGYLSRAAQAWLELLREQPLEESPA | not soluble |
| MKLKDCVMIKKIFALPVIEQISPVLSRRKLDELDLIVVDHPQVKASFALQGAHLLSWKPAGEEEVLWLSNNTPFKNGVAIRGGVPVCWPWFGPAAQQGLPAHGFARNLPWTLKSHHEDADGVALTFELTQSEETKKFWPHDFTLLAHFRVGKTCEIDLESHGEFETTSALHTYFNVGDIAKVSVSGLGDRFIDKVNDAKENVLTDGIQTFPDRTDRVYLNPQDCSVINDEALNRIIAVGHQHHLNVVGWNPGPALSISMGDMPDDGYKTFVCVETAYASETQKVTKEKPAHLAQSIRVAKRLEHHHHHH | not soluble |
| MASWSHPQFEKGAETAVPNSSSVPGDPSSMTRKNVLLIVVDQWRADFIPHLMRAEGREPFLKTPNLDRLCREGLTFRNHVTTCVPGGPARASLLTGLYLMNHRAVQNTVPLDQRHLNLGKALRAIGYDPALIGYTTTTPDPRTTSARDPRFTVLGDIMDGFRSVGAFEPNMEGYFGWVAQNGFELPENREDIWLPEGEHSVPGATDKPSRIPKEFSDSTFFTERALTYLKGRDGKPFFLHLGYYRPHPPFVASAPYHAMYKAEDMPAPIRAENPDAEAAQHPLMKHYIDHIRRGSFFHGAEGSGATLDEGEIRQMRATYCGLITEIDDCLGRVFAYLDETGQWDDTLIIFTSDHGEQLGDHHLLGKIGYNAESFRIPLVIKDAGQNRHAGQIEEGFSESIDVMPTILEWLGGETPRACDGRSLLPFLAEGKPSDWRTELHYEFDFRDVFYDQPQNSVQLSQDDCSLCVIEDENYKYVHFAALPPLFFDLKADPHEFSNLAGDPAYAALVRDYAQKALSWRLSHADRTLTHYRSSPQGLTTRNH | soluble |
| MKSTEVKGSVSDATDFLVPLPPKSVNEKILNPAILTLFIPQIKAVSSIRERIYLLRIKWVISWDTPLTVYSVKLDDNRYIARYYASQKIPLFVVSFGFDFYIMSEGTGSRIKMKEWYKGPFKQLAKGEIEKHLKKAKEVLPEFLIKILEHHHHHH | soluble |
| MSFKDFSFEFNGEPIHFSITSHPDKDLVHFNSTGRIGQVIEVIQPPEILSSQLSDQQRVEYELKSLLGNPELPGVELFIRRFVIHFAGTNQRKSALFVFGIDLDGIPNECIAAALQALEENH | not soluble |
